Target: β1 integrins on HEp-2 cells

## RGDS peptide (Gibco)
  ID30: 170 µM

Reference: patent US20040019188A1, “Targeting through integrins” (priority 2000, published 2004)
